Where a chain is given by its changes, count along the chain named. Numbers in names are those of the source.
B1: GST-tagged ScSmc3 ATPase head (ScSmc3^AH), wild type (domain or fragment, S. cerevisiae)
chain: MYIKRVIIKGFKTYRNETIIDNFSPHQNVIIGSNGSGKSNFFAAIRFVLSDDYSNLKREERQGLIHQGSGGSVMSASVEIVFHDPDHSMILPSGVLSRGDDEVTIRRTVGLKKDDYQLNDRNVTKGDIVRMLETAGFSMNNPYNIVPQGKIVALTNAKDKERLQLLEDVVGAKSFEVKLKASLKKMEETESGGSGGKVSENFEAVFERLVPRGTAKLIIHRKNDNANDHDESIDVDMDAESNESQNGKDSEIMYTGVSISVSFNSKQNEQLHVEQLSGGQKTVCAIALILAIQMVDPASFYLFDEIDAALDKQYRTAVATLLKELSKNAQFICTTFRTDMLQVADKFFRVKYENKISTVIEVNREEAIGFIRGSNKFAEV
B2: GST-tagged ScSmc3^AH K112N K113N (domain or fragment, S. cerevisiae)
chain: B1 chain with K112N, K113N
B3: GST-tagged ScSmc3^AH L163D L166D (domain or fragment, S. cerevisiae)
chain: B1 chain with L163D, L166D
B4: GST-tagged ScSmc3^AH L163A L166A D168A (domain or fragment, S. cerevisiae)
chain: B1 chain with L163A, L166A, D168A

Columns and labels:
Assay in all cases: BLI
[1] = target: T1, ScWpl1^259–647 (Wapl domain of Saccharomyces cerevisiae Wpl1), wild type (S. cerevisiae, UniProt Q99359 259-647)
T1 sequence (looked up): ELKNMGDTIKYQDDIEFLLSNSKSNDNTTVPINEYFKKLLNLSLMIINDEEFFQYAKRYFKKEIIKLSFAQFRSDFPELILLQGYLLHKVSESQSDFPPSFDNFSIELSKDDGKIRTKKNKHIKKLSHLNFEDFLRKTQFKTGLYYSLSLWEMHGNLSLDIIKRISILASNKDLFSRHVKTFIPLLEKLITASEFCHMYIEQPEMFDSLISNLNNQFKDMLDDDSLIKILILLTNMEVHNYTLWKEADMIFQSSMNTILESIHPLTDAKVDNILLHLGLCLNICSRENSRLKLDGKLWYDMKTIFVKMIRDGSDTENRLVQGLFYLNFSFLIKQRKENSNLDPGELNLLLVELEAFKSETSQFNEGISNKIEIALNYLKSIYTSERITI

[2] = target: T2, ScWpl1^259–647 N493A N622A L532E (S. cerevisiae, UniProt Q99359 259-647, N493A | N622A | L532E)
T2 sequence (looked up): T1 sequence (looked up) with N235A, L274E, N364A

[3] = target: T3, ScWpl1^259–647 N493A N622A L577R (S. cerevisiae, UniProt Q99359 259-647, N493A | N622A | L577R)
T3 sequence (looked up): T1 sequence (looked up) with N235A, L319R, N364A

[4] = target: T4, ScWpl1^259–647 N493E N622E (S. cerevisiae, UniProt Q99359 259-647, N493E | N622E)
T4 sequence (looked up): T1 sequence (looked up) with N235E, N364E

[5] = target: T5, ScWpl1^259–647 D271A D272A (S. cerevisiae, UniProt Q99359 259-647, D271A | D272A)
T5 sequence (looked up): T1 sequence (looked up) with D13A, D14A

[6] = target: T6, ScWpl1^259–647 K376Q K377Q K382Q K383Q (S. cerevisiae, UniProt Q99359 259-647, K376Q | K377Q | K382Q | K383Q)
T6 sequence (looked up): T1 sequence (looked up) with K118Q, K119Q, K124Q, K125Q

Binder	Kd [1] [nM]	koff [1] [s⁻¹]	kon [1] [M⁻¹ s⁻¹]	Kd [2] [nM]	koff [2] [s⁻¹]	kon [2] [M⁻¹ s⁻¹]	Kd [3] [nM]	koff [3] [s⁻¹]	kon [3] [M⁻¹ s⁻¹]	Kd [4] [nM]	koff [4] [s⁻¹]	kon [4] [M⁻¹ s⁻¹]	Kd [5] [nM]	koff [5] [s⁻¹]	kon [5] [M⁻¹ s⁻¹]	Kd [6] [nM]	koff [6] [s⁻¹]	kon [6] [M⁻¹ s⁻¹]
B1	47	0.000248	5220	82	0.000344	4200	77	0.000428	5540	126	0.000492	3920	167	0.000395	2370	200	0.00056	2800
B2	88	0.000431	4880															
B3	102	0.000597	5880															
B4	104	0.000497	4770															

— paper PMC3590988 (The EMBO Journal, 2013)
